Results taken from patent publication US20120251444A1 (RAPTOR PHARMACEUTICALS, published 2012).
Bridge positions count the residues as written; N and C are the ends. * marks the point of attachment. Biotin = O=C1N[C@H]2[C@H](CS[C@H]2CCCCC(=O)*)N1

T1: recombinant human LRP1 cluster II (R&D Systems, amino acids 786-1165, with C-terminal Fc tag) (human, UniProt Q07954 786-1165)
T1 construct: range 786-1165; Bought from R&D Systems; coated on plates; also called LRP1-C2; not shown: C-terminal Fc tag of the bought protein
T1 sequence (looked up): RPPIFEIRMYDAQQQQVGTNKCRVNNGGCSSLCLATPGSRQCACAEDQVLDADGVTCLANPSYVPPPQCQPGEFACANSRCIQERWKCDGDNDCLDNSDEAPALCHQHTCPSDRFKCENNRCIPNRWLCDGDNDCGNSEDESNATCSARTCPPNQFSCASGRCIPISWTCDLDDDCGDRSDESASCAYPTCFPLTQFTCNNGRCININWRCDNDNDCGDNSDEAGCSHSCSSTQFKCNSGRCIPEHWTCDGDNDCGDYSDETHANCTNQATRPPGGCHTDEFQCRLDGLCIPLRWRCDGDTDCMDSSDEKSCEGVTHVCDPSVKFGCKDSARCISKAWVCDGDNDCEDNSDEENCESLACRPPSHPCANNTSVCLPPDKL


Legend:
[1] = target: T1, recombinant human LRP1 cluster II (R&D …); experiment: solid phase binding assay, LRP1 cluster II-Fc coated on plate
Procedure: Control wells contained no added inhibitor. Wells were washed with TBS supplemented with 5 mM CaCl₂ and 0.05% Tween-20. […] Excess HRP conjugate was removed and wells washed. Color was developed using TMB reagents (BioRad, Hercules, Calif.).

[2] = target: T2, LRP2 CR89 (UniProt P98164 1025-1102, limits assumed); experiment: solid-phase binding, OD at highest concentration against highest OD of all ligands
T2 construct: domain: CR89

[3] = target: T3, LRP1 CR3-5 (UniProt Q07954 852-973, limits assumed); experiment: as above
T3 construct: domain: CR3-5; also called LRP1 CR domains

[4] = target: T3, LRP1 CR3-5; experiment: binding titration on LRP1 CR3-5, absorbance against nM of ligand
[5] = target: T2, LRP2 CR89; experiment: solid-phase binding (OD), single-site non-linear regression
[6] = target: T3, LRP1 CR3-5; experiment: as above
[7] = target: T2, LRP2 CR89; experiment: binding titration on LRP2 CR89, absorbance against nM of ligand

T2 sequence (P98164 1025-1102 limits assumed): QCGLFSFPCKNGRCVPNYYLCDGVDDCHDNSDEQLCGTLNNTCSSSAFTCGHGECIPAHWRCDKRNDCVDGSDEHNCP

Kd [1] | % max (percent of maximum binding) [2] | % max (percent of maximum binding) [3] | binding result [4] | Kd [5] | Kd [6] | binding result [7] | Binder
~4 nM | – | – | – | – | – | – | mRAP-8c (N-terminal biotin (biotin-GGSGG), Cysteines at both ends are meant for cyclization by a disulfide bond) peptide: GGSGGCGKHFEAKIEKHNHYQKQLEIAHEKLRHAESVGDGERVSRSREKHALLEGRTKELGYTVKKHLQDGC
~21 nM | – | – | – | – | – | – | mRAP-14c (disulfide 6-65, Cysteines at both ends are meant for cyclization by a disulfide bond) peptide: Biotin-GGSGGCEAKIEKHNHYQKQLEIAHEKLRHAESVGDGERVSRSREKHALLEGRTKELGYTVKKHGC
– | 88% | 4% | no binding (tested: 100 nM) | 38 nM | – | – | MegaRAP1 d3 (ligand, also called RAPv2A d3; RAP v2) GLDRLRRVSHQGYTTEAKFEEPRVIDLWDLAQSANLTDKELEAFREELKYFKAKIEAHNHYQKQLEIAHEELRHAESVGDGERVSRSREKHALLEGRTKELGYTVKKHLQDLSGRISRARHNEL
– | 2% | 90% | – | – | 28 nM | no binding (tested: 100 nM) | RAP d3 H249Y (ligand, also called RAP H249Y) GLDRLRRVSHQGYSTEAEFEEPRVIDLWDLAQSANLTDKELEAFREELKYFEAKIEKHNHYQKQLEIAHEKLRHAESVGDGERVSRSREKHALLEGRTKELGYTVKKHLQDLSGRISRARHNEL
– | 88% | 2% | no binding (tested: 100 nM) | 25 nM | – | – | MegaRAP1 d3 K217E (ligand, also called MegaRAP1 K217E) GLDRLRRVSHQGYTTEAEFEEPRVIDLWDLAQSANLTDKELEAFREELKYFKAKIEAHNHYQKQLEIAHEELRHAESVGDGERVSRSREKHALLEGRTKELGYTVKKHLQDLSGRISRARHNEL
– | 2% | 6% | no binding (tested: 100 nM) | – | – | no binding (tested: 100 nM) | MegaRAP1 d3 A256K (ligand, also called MegaRAP1 A256K) GLDRLRRVSHQGYTTEAKFEEPRVIDLWDLAQSANLTDKELEAFREELKYFKAKIEKHNHYQKQLEIAHEELRHAESVGDGERVSRSREKHALLEGRTKELGYTVKKHLQDLSGRISRARHNEL
– | 5% | 91% | – | – | 9 nM | no binding (tested: 100 nM) | RAP d3 E217K (ligand, also called RAP E217K) GLDRLRRVSHQGYSTEAKFEEPRVIDLWDLAQSANLTDKELEAFREELKHFEAKIEKHNHYQKQLEIAHEKLRHAESVGDGERVSRSREKHALLEGRTKELGYTVKKHLQDLSGRISRARHNEL
– | 35% | 2% | no binding (tested: 100 nM) | – | – | – | MegaRAP1 d3 Y249H (ligand, also called MegaRAP1 Y249H) GLDRLRRVSHQGYTTEAKFEEPRVIDLWDLAQSANLTDKELEAFREELKHFKAKIEAHNHYQKQLEIAHEELRHAESVGDGERVSRSREKHALLEGRTKELGYTVKKHLQDLSGRISRARHNEL
– | 11% | 2% | no binding (tested: 100 nM) | – | – | – | MegaRAP1 d3 K251E (ligand, also called MegaRAP1 K251E) GLDRLRRVSHQGYTTEAKFEEPRVIDLWDLAQSANLTDKELEAFREELKYFEAKIEAHNHYQKQLEIAHEELRHAESVGDGERVSRSREKHALLEGRTKELGYTVKKHLQDLSGRISRARHNEL

The next lines start with the binder.

Binder | Kd [1] | % max (percent of maximum binding) [2] | % max (percent of maximum binding) [3] | binding result [4] | Kd [5] | Kd [6] | binding result [7]
RAP d3 (ligand, also called recombinant RAP d3) GLDRLRRVSHQGYSTEAEFEEPRVIDLWDLAQSANLTDKELEAFREELKHFEAKIEKHNHYQKQLEIAHEKLRHAESVGDGERVSRSREKHALLEGRTKELGYTVKKHLQDLSGRISRARHNEL | – | 5% | 76% | – | – | – | –
RAP d3 E251K, K270E (ligand, also called RAP E251K, K270E) GLDRLRRVSHQGYSTEAEFEEPRVIDLWDLAQSANLTDKELEAFREELKHFKAKIEKHNHYQKQLEIAHEELRHAESVGDGERVSRSREKHALLEGRTKELGYTVKKHLQDLSGRISRARHNEL | – | 2% | 4% | no binding (tested: 100 nM) | – | – | –
MegaRAP1 d3 E270K (ligand, also called MegaRAP1 E270K) GLDRLRRVSHQGYTTEAKFEEPRVIDLWDLAQSANLTDKELEAFREELKYFKAKIEAHNHYQKQLEIAHEKLRHAESVGDGERVSRSREKHALLEGRTKELGYTVKKHLQDLSGRISRARHNEL | – | 100% | 85% | – | 8 nM | 114 nM | –
MegaRAP1 d3 A256K, E270K (ligand, also called MegaRAP1 A256K, E270K) GLDRLRRVSHQGYTTEAKFEEPRVIDLWDLAQSANLTDKELEAFREELKYFKAKIEKHNHYQKQLEIAHEKLRHAESVGDGERVSRSREKHALLEGRTKELGYTVKKHLQDLSGRISRARHNEL | – | 73% | 93% | – | 72 nM | 4 nM | –
RAP d3 E251K, K256A, K270E (ligand, also called RAP E251K, K256A, K270E) GLDRLRRVSHQGYSTEAEFEEPRVIDLWDLAQSANLTDKELEAFREELKHFKAKIEAHNHYQKQLEIAHEELRHAESVGDGERVSRSREKHALLEGRTKELGYTVKKHLQDLSGRISRARHNEL | – | 40% | 2% | no binding (tested: 100 nM) | 114 nM | – | –
RAP d3 K256A, K270E (ligand, also called RAP K256A, K270E) GLDRLRRVSHQGYSTEAEFEEPRVIDLWDLAQSANLTDKELEAFREELKHFEAKIEAHNHYQKQLEIAHEELRHAESVGDGERVSRSREKHALLEGRTKELGYTVKKHLQDLSGRISRARHNEL | – | 3% | 2% | no binding (tested: 100 nM) | – | – | no binding (tested: 100 nM)
MegaRAP1 d3 K251E, E270K (ligand, also called MegaRAP1 K251E, E270K) GLDRLRRVSHQGYTTEAKFEEPRVIDLWDLAQSANLTDKELEAFREELKYFEAKIEAHNHYQKQLEIAHEKLRHAESVGDGERVSRSREKHALLEGRTKELGYTVKKHLQDLSGRISRARHNEL | – | 16% | 16% | – | 153 nM | – | –
RAP d3 E251K (ligand, also called RAP E251K) GLDRLRRVSHQGYSTEAEFEEPRVIDLWDLAQSANLTDKELEAFREELKHFKAKIEKHNHYQKQLEIAHEKLRHAESVGDGERVSRSREKHALLEGRTKELGYTVKKHLQDLSGRISRARHNEL | – | 5% | 100% | – | – | 7 nM | no binding (tested: 100 nM)
RAP d3 K270E (ligand, also called RAP K270E) GLDRLRRVSHQGYSTEAEFEEPRVIDLWDLAQSANLTDKELEAFREELKHFEAKIEKHNHYQKQLEIAHEELRHAESVGDGERVSRSREKHALLEGRTKELGYTVKKHLQDLSGRISRARHNEL | – | 2% | 4% | no binding (tested: 100 nM) | – | – | no binding (tested: 100 nM)
MegaRAP1 d3 T213S (ligand, also called MegaRAP1 T213S) GLDRLRRVSHQGYSTEAKFEEPRVIDLWDLAQSANLTDKELEAFREELKYFKAKIEAHNHYQKQLEIAHEELRHAESVGDGERVSRSREKHALLEGRTKELGYTVKKHLQDLSGRISRARHNEL | – | 94% | 2% | no binding (tested: 100 nM) | 19 nM | – | –
